This note sets out measurements from the Immune Epitope Database (IEDB).

For one experiment, the target named is HLA-C*14:02. The experiment is described as follows: IEDB peptide-MHC binding, purified MHC/competitive/fluorescence; filed as Kd, often an IC50 or EC50 that approximates it; ≥ and ≤ were set here for values at or beyond the usual limits of such assays.
A further experiment addresses HLA-B*83:01. The description is as above.
The target in another experiment is HLA-B*45:06. Described as above.
In experiment [1] the target is HLA-C*06:02. The description is as above. Particulars: source organism: Homo sapiens.
The target of the next experiment is HLA-B*15:42. The description is as above.
The target in the next experiment is HLA-C*12:03. The experiment in a line: IEDB peptide-MHC binding, purified MHC/direct/fluorescence; filed as Kd, often an IC50 or EC50 that approximates it; ≥ and ≤ were set here for values at or beyond the usual limits of such assays.
In the next experiment the target is HLA-A*01:01. The experiment is described as follows: IEDB peptide-MHC binding, purified MHC/competitive/fluorescence; filed as Kd, often an IC50 or EC50 that approximates it; ≥ and ≤ were set here for values at or beyond the usual limits of such assays. The note with it: source organism: Homo sapiens.
Experiment [2] addresses HLA-C*04:01. Described as above. Particulars: source organism: Homo sapiens.
A further experiment deals with HLA-A*29:02. Described as above.
For the next experiment, the target named is HLA-C*07:02. The experiment in a line: IEDB peptide-MHC binding, purified MHC/direct/fluorescence; filed as Kd, often an IC50 or EC50 that approximates it; ≥ and ≤ were set here for values at or beyond the usual limits of such assays.
The target in experiment [3] is HLA-C*06:02. The experiment is described as above. Particulars: source organism: Homo sapiens.
Experiment [4] has as its target HLA-B*46:01. The experiment is described as follows: IEDB peptide-MHC binding, cellular MHC/competitive/fluorescence; ≥ and ≤ were set here for values at or beyond the usual limits of such assays. Particulars: source organism: Human herpesvirus 4 strain B95-8.
In the next experiment the target is HLA-A*68:23. The experiment is described as follows: IEDB peptide-MHC binding, purified MHC/competitive/fluorescence; filed as Kd, often an IC50 or EC50 that approximates it; ≥ and ≤ were set here for values at or beyond the usual limits of such assays.
The target in a further experiment is HLA-A*32:07. The experiment is described as above. The note with it: source organism: Cryptosporidium parvum Iowa II.
Another experiment deals with HLA-B*27:20. The experiment is described as above. The note with it: source organism: Cryptosporidium parvum Iowa II.
The target in another experiment is HLA-B*40:13. Described as above.
In another experiment the target is HLA-A*69:01. The experiment in a line: IEDB peptide-MHC binding, purified MHC/direct/fluorescence; filed as Kd, often an IC50 or EC50 that approximates it; ≥ and ≤ were set here for values at or beyond the usual limits of such assays. The note with it: source organism: Cryptosporidium parvum.
The target of another experiment is HLA-A*02:01. The description is as above. The note with it: source organism: Cryptosporidium parvum.
The target of a further experiment is HLA-A*32:15. The experiment in a line: IEDB peptide-MHC binding, purified MHC/competitive/fluorescence; filed as Kd, often an IC50 or EC50 that approximates it; ≥ and ≤ were set here for values at or beyond the usual limits of such assays. The note with it: source organism: Salmonella enterica subsp. arizonae serovar 62:z4,z23:-.
Another experiment concerns the target HLA-C*15:02. The experiment in a line: IEDB peptide-MHC binding, purified MHC/direct/fluorescence; filed as Kd, often an IC50 or EC50 that approximates it; ≥ and ≤ were set here for values at or beyond the usual limits of such assays. Particulars: source organism: Salmonella enterica subsp. arizonae serovar 62:z4,z23:-.
For the next experiment, the target named is HLA-B*27:05. The experiment in a line: IEDB peptide-MHC binding, purified MHC/competitive/fluorescence; ≥ and ≤ were set here for values at or beyond the usual limits of such assays. The note with it: source organism: hepatitis C virus genotype 1a.
The target of another experiment is HLA-A*02:11. The experiment in a line: IEDB peptide-MHC binding, purified MHC/direct/fluorescence; filed as Kd, often an IC50 or EC50 that approximates it; ≥ and ≤ were set here for values at or beyond the usual limits of such assays. The note with it: source organism: Campylobacter jejuni.
A further experiment has as its target HLA-A*02:19. Described as above. The note with it: source organism: Campylobacter jejuni.
For the next experiment, the target named is HLA-A*02:03. The description is as above. Particulars: source organism: Campylobacter jejuni.
Another experiment has as its target HLA-B*18:01. Described as above. Particulars: source organism: Campylobacter jejuni.
The target in a further experiment is HLA-A*02:12. The experiment is described as above. The note with it: source organism: Campylobacter jejuni.
Experiment [5] addresses HLA-B*46:01. Described as above. The note with it: source organism: Campylobacter jejuni.
For another experiment, the target named is HLA-B*57:01. The experiment is described as above. The note with it: source organism: Campylobacter jejuni.
Experiment [6] addresses HLA-C*04:01. Described as above. Particulars: source organism: Campylobacter jejuni.
The target of another experiment is HLA-A*26:01. The description is as above. The note with it: source organism: Campylobacter jejuni.
The target of the next experiment is HLA-A*03:01. The experiment is described as above. The note with it: source organism: Campylobacter jejuni.
Another experiment deals with HLA-B*51:01. The description is as above. The note with it: source organism: Campylobacter jejuni.
The target in a further experiment is HLA-B*39:01. The description is as above. The note with it: source organism: Campylobacter jejuni.
The next experiment concerns the target HLA-A*25:01. The description is as above. The note with it: source organism: Campylobacter jejuni.
For another experiment, the target named is HLA-A*80:01. The description is as above. Particulars: source organism: Campylobacter jejuni.
Another experiment has as its target HLA-B*27:03. Described as above. Particulars: source organism: Campylobacter jejuni.
The next experiment addresses HLA-B*15:01. Described as above. Particulars: source organism: Campylobacter jejuni.
[7] abbreviates: source organism: Cryptosporidium parvum Iowa II.
Where [8] appears, read: source organism: Salmonella enterica subsp. arizonae serovar 62:z4,z23:-.

Bounds are passed on as bounds.

A word on the Kd: it is the concentration at which binding is half-saturated. With VMAPRTLIL, the Kd is 208 nM in the experiment with HLA-C*14:02 (source organism: Homo sapiens); ≥ 5000 nM in the experiment with HLA-B*83:01 (source organism: Homo sapiens); ≥ 5000 nM with HLA-B*45:06 (source organism: Homo sapiens); 3790 nM with HLA-C*06:02 [1]; ≥ 5000 nM with HLA-B*15:42 (source organism: Homo sapiens); 397 nM with HLA-C*12:03 (source organism: Homo sapiens).

For the sequence YYWPRPRRY, the Kd with HLA-B*83:01 (source organism: Homo sapiens) is ≥ 5000 nM; in the experiment with HLA-A*01:01, ≥ 20000 nM; with HLA-C*04:01 [2] it was ≥ 5000 nM; with HLA-B*45:06 (source organism: Homo sapiens), ≥ 5000 nM; with HLA-B*15:42 (source organism: Homo sapiens), ≥ 5000 nM; with HLA-A*29:02 (source organism: Homo sapiens), ≤ 0.1 nM. Further, the Kd with HLA-C*07:02 (source organism: Homo sapiens) is ≤ 1 nM; with HLA-C*06:02 [3], 14 nM; with HLA-C*12:03 (source organism: Homo sapiens), 283 nM.

As usually defined, the IC50 is the concentration needed to halve the response being measured. A low value points to greater potency in that assay. Sequence FTYPVLEEM displayed an IC50 with HLA-B*46:01 [4] of 10000 nM.

As for MQFPGSVGF, the Kd with HLA-A*68:23 (setting [7]) was 42.4 nM; with HLA-A*32:07, 1.2 nM; with HLA-B*83:01 (setting [7]), ≥ 5000 nM; with HLA-B*27:20, 0.8 nM; with HLA-B*45:06 (setting [7]), ≥ 5000 nM; in the experiment with HLA-B*15:42 (setting [7]), ≥ 5000 nM. Besides, the Kd with HLA-B*40:13 (setting [7]) worked out at 0.9 nM; with HLA-A*69:01 it was 3640 nM; with HLA-A*02:01 it was 769 nM; with HLA-C*07:02 (setting [7]) it was 429 nM.

With YTIYGAWMF, the Kd in the experiment with HLA-A*68:23 (setting [8]) is 0.6 nM; with HLA-C*14:02 (setting [8]), 347 nM; with HLA-B*83:01 (setting [8]), ≥ 5000 nM; with HLA-A*32:15, 79.6 nM; with HLA-B*45:06 (setting [8]), ≥ 5000 nM; in the experiment with HLA-B*15:42 (setting [8]), ≥ 5000 nM. In addition, the Kd was 0.6 nM in the experiment with HLA-A*29:02 (setting [8]), 397 nM with HLA-B*40:13 (setting [8]), 1730 nM in the experiment with HLA-C*15:02 and 1200 nM with HLA-C*12:03 (setting [8]).

Regarding GGATICGKY, the IC50 in the experiment with HLA-B*27:05 is ≥ 750000 nM.

YWDQVTFFY: the Kd with HLA-A*02:11, with HLA-A*02:19, with HLA-A*02:03, with HLA-B*18:01, with HLA-A*02:12 and with HLA-B*46:01 [5] was ≥ 20000 nM in each case. Besides, the Kd in the experiment with HLA-B*57:01, with HLA-C*04:01 [6], in the experiment with HLA-A*26:01, in the experiment with HLA-A*03:01, with HLA-B*51:01 and with HLA-B*39:01 was ≥ 20000 nM throughout. Besides, the Kd in the experiment with HLA-A*25:01 was ≥ 20000 nM; with HLA-A*80:01, 56 nM; in the experiment with HLA-B*27:03 it was ≥ 20000 nM; with HLA-B*15:01, ≥ 20000 nM.
